Measured values taken from PMC3642127, “Distinguishable In Vitro Binding Mode of Monomeric TRBP and Dimeric PACT with siRNA” (PLoS ONE, 2013).

Key:
[1] = target: T1, PACT-WT (N-terminal His- and C-terminal myc-tagged protein activator of PKR) (human), O75569; assay: SEC; Superdex 200 HR 10/30; purified protein (TRBP proteins 1,300 nM, 330-1,300 nM in Figure S3; PACT concentration not stated) pre-incubated with siLuc-36 siRNA (300 nM) 30 min on ice; 20 mM Tris pH 7.5, 150 mM NaCl, 2 mM EDTA, 1 mM 2-mercaptoethanol, 1 mM DTT; fractions blotted with anti-myc; details: remark: other sources report otherwise
T1 chain: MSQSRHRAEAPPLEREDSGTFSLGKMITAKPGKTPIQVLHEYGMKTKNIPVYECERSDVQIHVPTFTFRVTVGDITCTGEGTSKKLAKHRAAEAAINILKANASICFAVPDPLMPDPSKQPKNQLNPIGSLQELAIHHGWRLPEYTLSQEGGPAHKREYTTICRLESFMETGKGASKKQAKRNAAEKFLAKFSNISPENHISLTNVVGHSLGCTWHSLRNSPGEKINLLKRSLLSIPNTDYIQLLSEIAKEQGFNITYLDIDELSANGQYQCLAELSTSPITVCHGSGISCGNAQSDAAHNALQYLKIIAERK

[2] = target: the molecule itself; assay: native gel or EMSA; purified protein 0-1,300 nM with 0.5 nM 32P-labeled siRNA, 30 min on ice; 20 mM Tris pH 7.5, 150 mM NaCl, 2 mM EDTA, 1 mM 2-mercaptoethanol, 1 mM DTT, salmon sperm DNA, RNasin; 9% polyacrylamide gel; Kd from siRNA-binding curves; complex 2 = second protein molecule joining the protein-siRNA complex 1
[3] = target: the molecule itself; assay: SEC; Superdex 200 HR 10/30; purified protein (TRBP proteins 1,300 nM, 330-1,300 nM in Figure S3; PACT concentration not stated) pre-incubated with siLuc-36 siRNA (300 nM) 30 min on ice; 20 mM Tris pH 7.5, 150 mM NaCl, 2 mM EDTA, 1 mM 2-mercaptoethanol, 1 mM DTT; fractions blotted with anti-myc
TRBP-WT [4] = target: T2, TRBP-WT (human, UniProt Q15633 1-366); assay: EMSA; complex 1 (monomer); EMSA: 20 mM Tris pH 7.5, 150 mM NaCl, 2 mM EDTA, 1 mM 2-mercaptoethanol, 1 mM DTT, 50 ng/ul salmon sperm DNA, 0.4 U/ul RNasin, 0.5 nM 32P-siRNA, 30 min on ice; details: protein: recombinant, tags: N-His6;C-myc, label: 32P guide strand
T2 sequence: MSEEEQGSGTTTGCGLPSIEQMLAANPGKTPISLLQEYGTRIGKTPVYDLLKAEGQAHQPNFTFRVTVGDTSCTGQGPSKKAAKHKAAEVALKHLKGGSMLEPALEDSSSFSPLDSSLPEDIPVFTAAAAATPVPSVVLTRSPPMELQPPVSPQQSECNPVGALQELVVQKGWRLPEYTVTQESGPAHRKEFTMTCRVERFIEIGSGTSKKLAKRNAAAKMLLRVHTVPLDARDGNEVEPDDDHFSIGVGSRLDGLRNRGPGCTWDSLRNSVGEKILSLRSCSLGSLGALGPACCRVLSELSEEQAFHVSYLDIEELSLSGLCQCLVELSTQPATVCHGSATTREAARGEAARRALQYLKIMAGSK

TRBP-ΔdsRBD3 = target: T3, TRBP-ΔdsRBD3 (human, UniProt Q15633 1-292); assay: EMSA; complex 1; EMSA: 20 mM Tris pH 7.5, 150 mM NaCl, 2 mM EDTA, 1 mM 2-mercaptoethanol, 1 mM DTT, 50 ng/ul salmon sperm DNA, 0.4 U/ul RNasin, 0.5 nM 32P-siRNA, 30 min on ice; details: protein: recombinant; tags: N-His6;C-myc; label: 32P guide strand; 2 nt 3' overhangs
T3 sequence: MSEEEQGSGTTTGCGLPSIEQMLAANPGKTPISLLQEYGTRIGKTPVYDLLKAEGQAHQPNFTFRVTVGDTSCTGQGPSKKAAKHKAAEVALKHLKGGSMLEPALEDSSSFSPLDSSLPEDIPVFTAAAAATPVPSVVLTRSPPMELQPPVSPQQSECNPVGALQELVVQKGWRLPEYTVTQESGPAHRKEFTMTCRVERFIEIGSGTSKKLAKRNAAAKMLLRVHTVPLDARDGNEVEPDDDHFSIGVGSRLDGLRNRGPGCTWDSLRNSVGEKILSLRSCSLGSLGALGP

TRBP-WT [5] = target: T2, TRBP-WT; assay: EMSA; EMSA: 20 mM Tris pH 7.5, 150 mM NaCl, 2 mM EDTA, 1 mM 2-mercaptoethanol, 1 mM DTT, 50 ng/ul salmon sperm DNA, 0.4 U/ul RNasin, 0.5 nM 32P-siRNA, 30 min on ice; details: protein: recombinant, tags: N-His6;C-myc, label: 32P

B1: PACT-WT (N-terminal His- and C-terminal myc-tagged protein activator of PKR), O75569 1-313 (natural protein)
chain: MSQSRHRAEAPPLEREDSGTFSLGKMITAKPGKTPIQVLHEYGMKTKNIPVYECERSDVQIHVPTFTFRVTVGDITCTGEGTSKKLAKHRAAEAAINILKANASICFAVPDPLMPDPSKQPKNQLNPIGSLQELAIHHGWRLPEYTLSQEGGPAHKREYTTICRLESFMETGKGASKKQAKRNAAEKFLAKFSNISPENHISLTNVVGHSLGCTWHSLRNSPGEKINLLKRSLLSIPNTDYIQLLSEIAKEQGFNITYLDIDELSANGQYQCLAELSTSPITVCHGSGISCGNAQSDAAHNALQYLKIIAERK
- stoichiometry N [1]: 2

B2: TRBP-dsRBDmt1 (natural protein, human, UniProt Q15633 1-366, looked up)
chain: MSEEEQGSGTTTGCGLPSIEQMLAANPGKTPISLLQEYGTRIGKTPVYDLLKAEGQAHQPNFTFRVTVGDTSCTGQGPSAAAAKHKAAEVALKHLKGGSMLEPALEDSSSFSPLDSSLPEDIPVFTAAAAATPVPSVVLTRSPPMELQPPVSPQQSECNPVGALQELVVQKGWRLPEYTVTQESGPAHRKEFTMTCRVERFIEIGSGTSKKLAKRNAAAKMLLRVHTVPLDARDGNEVEPDDDHFSIGVGSRLDGLRNRGPGCTWDSLRNSVGEKILSLRSCSLGSLGALGPACCRVLSELSEEQAFHVSYLDIEELSLSGLCQCLVELSTQPATVCHGSATTREAARGEAARRALQYLKIMAGSK
notes: full length human TRBP with lysines 80 and 81 in dsRBD1 replaced with alanines; source: E. coli Rosetta (DE3) pLysS, purified (Ni-NTA agarose); not shown: His6, N-terminal, kept; myc, C-terminal, kept
- binding result [2]: binds

B3: TRBP-dsRBDmt2 (natural protein, human, UniProt Q15633 1-366, looked up)
chain: MSEEEQGSGTTTGCGLPSIEQMLAANPGKTPISLLQEYGTRIGKTPVYDLLKAEGQAHQPNFTFRVTVGDTSCTGQGPSKKAAKHKAAEVALKHLKGGSMLEPALEDSSSFSPLDSSLPEDIPVFTAAAAATPVPSVVLTRSPPMELQPPVSPQQSECNPVGALQELVVQKGWRLPEYTVTQESGPAHRKEFTMTCRVERFIEIGSGTSAALAKRNAAAKMLLRVHTVPLDARDGNEVEPDDDHFSIGVGSRLDGLRNRGPGCTWDSLRNSVGEKILSLRSCSLGSLGALGPACCRVLSELSEEQAFHVSYLDIEELSLSGLCQCLVELSTQPATVCHGSATTREAARGEAARRALQYLKIMAGSK
notes: full length human TRBP with lysines 210 and 211 in dsRBD2 replaced with alanines; source: E. coli Rosetta (DE3) pLysS, purified (Ni-NTA agarose); not shown: His6, N-terminal, kept; myc, C-terminal, kept
- binding result [2]: binds

B4: PACT-dsRBDmt1 (natural protein, human, UniProt O75569 1-313, looked up)
chain: MSQSRHRAEAPPLEREDSGTFSLGKMITAKPGKTPIQVLHEYGMKTKNIPVYECERSDVQIHVPTFTFRVTVGDITCTGEGTSAALAKHRAAEAAINILKANASICFAVPDPLMPDPSKQPKNQLNPIGSLQELAIHHGWRLPEYTLSQEGGPAHKREYTTICRLESFMETGKGASKKQAKRNAAEKFLAKFSNISPENHISLTNVVGHSLGCTWHSLRNSPGEKINLLKRSLLSIPNTDYIQLLSEIAKEQGFNITYLDIDELSANGQYQCLAELSTSPITVCHGSGISCGNAQSDAAHNALQYLKIIAERK
notes: human PACT with lysines 84 and 85 in dsRBD1 replaced with alanines; source: E. coli Rosetta (DE3) pLysS, purified (Ni-NTA agarose); not shown: His6, N-terminal, kept; myc, C-terminal, kept
- stoichiometry N [3]: 2

B5: PACT-dsRBDmt2 (natural protein, human, UniProt O75569 1-313, looked up)
chain: MSQSRHRAEAPPLEREDSGTFSLGKMITAKPGKTPIQVLHEYGMKTKNIPVYECERSDVQIHVPTFTFRVTVGDITCTGEGTSKKLAKHRAAEAAINILKANASICFAVPDPLMPDPSKQPKNQLNPIGSLQELAIHHGWRLPEYTLSQEGGPAHKREYTTICRLESFMETGKGASAAQAKRNAAEKFLAKFSNISPENHISLTNVVGHSLGCTWHSLRNSPGEKINLLKRSLLSIPNTDYIQLLSEIAKEQGFNITYLDIDELSANGQYQCLAELSTSPITVCHGSGISCGNAQSDAAHNALQYLKIIAERK
notes: human PACT with lysines 177 and 178 in dsRBD2 replaced with alanines; source: E. coli Rosetta (DE3) pLysS, purified (Ni-NTA agarose); not shown: His6, N-terminal, kept; myc, C-terminal, kept
- stoichiometry N [3]: 2

B6: siLuc-36 (dsRNA)
RNA 1: UCUUCCAGCGGAUAGAAUGGC
RNA 2: CAUUCUAUCCGCUGGAAGAUG
- Kd (TRBP-WT [4]; 2 nt 3' overhangs): 5.3 nM
- Kd (TRBP-ΔdsRBD3): 5 nM

B7: siLuc-1430 (dsRNA)
RNA 1: CGGCGGCGGGAAGUUCACCGG
RNA 2: GGUGAACUUCCCGCCGCCGUU
- Kd (TRBP-WT [4]; 2 nt 3' overhangs): 5.7 nM

B8: siLuc-36B (dsRNA)
RNA 1: UCUUCCAGCGGAUAGAAUGGC
RNA 2: GCCAUUCUAUCCGCUGGAAGA
- Kd (TRBP-WT [4]; blunt): 4.5 nM

B9: siLuc2-153B (dsRNA)
RNA 1: UCGAAGUAUUCCGCGUACGUG
RNA 2: CACGUACGCGGAAUACUUCGA
- Kd (TRBP-WT [4]; blunt): 5.1 nM

B10: siLuc-30 (dsRNA)
RNA 1: UCUUCAUAGAAUGGCGCCGGG
RNA 2: CGGCGCCAUUCUAUGAAGAUG
- Kd (TRBP-WT [4]; 2 nt 3' overhangs): 6.2 nM

B11: dsDNA_Luc-36 (dsDNA)
DNA 1: TCTTCCAGCGGATAGAATGGC
DNA 2: CATTCTATCCGCTGGAAGATG
- binding result (TRBP-WT [5]): no binding

B12: dsDNA_Luc2-153 (dsDNA)
DNA 1: TCGAAGTATTCCGCGTACGTG
DNA 2: CGTACGCGGAATACTTCGATT
- binding result (TRBP-WT [5]): no binding

Binder: UCUUCCAGCGGAUAGAAUGGC (ssRNA) [ssRNA_Luc-36]
- binding result (TRBP-WT [5]; single strand): no binding

Binder: UCGAAGUAUUCCGCGUACGUG (ssRNA) [ssRNA_Luc2-153]
- binding result (TRBP-WT [5]; single strand): no binding

B13: siLuc-48 (dsRNA)
RNA 1: CCAGCGGUUCCAUCUUCCAGC
RNA 2: UGGAAGAUGGAACCGCUGGAG
- Kd (TRBP-WT [4]; 2 nt 3' overhangs): 33 nM

B14: siLuc-18 (dsRNA)
RNA 1: GGCGCCGGGCCUUUCUUUAUG
RNA 2: UAAAGAAAGGCCCGGCGCCAU
- Kd (TRBP-WT [4]; 2 nt 3' overhangs): 5.8 nM
